What is called Km is the substrate concentration at which the rate is half of its maximum. A word on the kcat/Km: it is the turnover number divided by the Michaelis constant.

One series deals with T1, FaPOD27 (Fragaria x ananassa, UniProt J7IER7).
T1 construct: GST fusion, E. coli, crude protein
T1 sequence (J7IER7 1-329): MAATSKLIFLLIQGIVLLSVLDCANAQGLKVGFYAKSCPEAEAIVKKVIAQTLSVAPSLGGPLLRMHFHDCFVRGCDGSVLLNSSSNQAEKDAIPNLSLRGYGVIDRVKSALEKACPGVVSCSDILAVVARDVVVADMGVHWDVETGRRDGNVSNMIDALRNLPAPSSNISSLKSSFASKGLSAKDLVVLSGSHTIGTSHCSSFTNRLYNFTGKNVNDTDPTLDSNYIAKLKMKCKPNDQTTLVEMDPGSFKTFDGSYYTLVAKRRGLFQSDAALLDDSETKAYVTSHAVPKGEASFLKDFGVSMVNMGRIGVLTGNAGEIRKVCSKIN
Kind of series: LC-UV-ESI-MSn product identification. The series is classed as biochemical. The settings on record: H2O2, sodium tartrate pH 3.5, room temperature; crude E. coli protein.

A further series concerns the target T2, FaCAD (Fragaria x ananassa, UniProt J7IAL0).
T2 construct: full-length ORF 1077 bp, 359 aa, 39 kDa; pYES2 in S. cerevisiae INVSc1, crude protein
T2 sequence (J7IAL0 1-359): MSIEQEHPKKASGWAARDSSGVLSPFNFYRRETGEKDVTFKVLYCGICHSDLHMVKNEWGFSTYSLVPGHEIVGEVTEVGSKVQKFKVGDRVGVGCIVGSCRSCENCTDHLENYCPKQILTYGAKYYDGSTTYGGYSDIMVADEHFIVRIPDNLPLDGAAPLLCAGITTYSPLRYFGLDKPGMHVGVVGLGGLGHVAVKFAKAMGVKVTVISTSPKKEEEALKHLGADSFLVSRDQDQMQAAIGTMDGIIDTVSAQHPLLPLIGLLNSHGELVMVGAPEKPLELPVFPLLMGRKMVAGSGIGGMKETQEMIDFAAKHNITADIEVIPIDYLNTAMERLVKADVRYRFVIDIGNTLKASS
Kind of series: LC-UV-ESI-MSn product identification. The series is classed as biochemical. As to conditions: NADPH 200 μM, coniferaldehyde 100 μM, sodium phosphate pH 6.5, 30 °C; crude yeast protein.

Substrate in series [1]: COc1cc(/C=C/C(=O)SCCNC(=O)CCNC(=O)[C@H](O)C(C)(C)COP(=O)(O)OP(=O)(O)OC[C@H]2O[C@@H](n3cnc4c(N)ncnc43)[C@H](O)[C@@H]2OP(=O)(O)O)ccc1O
Kind of series: spectrophotometric CCR assay. The class given is biochemical, Fragaria x ananassa. The settings on record: NADPH, sodium phosphate, pH optimum 6, 25 °C, apparent Km. An excerpt:
(§1) spectrophotometric CCR assay on GST-FaCCR

Substrate in series [2]: CC(C)(COP(=O)(O)OP(=O)(O)OC[C@H]1O[C@@H](n2cnc3c(N)ncnc32)[C@H](O)[C@@H]1OP(=O)(O)O)[C@@H](O)C(=O)NCCC(=O)NCCSC(=O)/C=C/c1ccc(O)c(O)c1
Kind of series: spectrophotometric CCR assay. The series is classed as biochemical, Fragaria x ananassa. The settings on record: NADPH, sodium phosphate, pH optimum 6, 25 °C, apparent Km.
Description: as §1

Substrate in series [3]: CC(C)(COP(=O)(O)OP(=O)(O)OC[C@H]1O[C@@H](n2cnc3c(N)ncnc32)[C@H](O)[C@@H]1OP(=O)(O)O)[C@@H](O)C(=O)NCCC(=O)NCCSC(=O)/C=C/c1ccc(O)cc1
Put plainly: spectrophotometric CCR assay. The series is classed as biochemical, Fragaria x ananassa. The settings on record: NADPH, sodium phosphate, pH optimum 6, 25 °C, apparent Km.
Description: as §1

Take `COc1cc(/C=C/C(=O)O)ccc1O` [ferulic acid]: the LC-UV-ESI-MSn product identification result on FaPOD27 was “ferulic acid and coniferyl alcohol were almost completely oxidized in the presence of H2O2”.
Regarding `COc1cc(/C=C/C=O)ccc1O` [coniferaldehyde], on FaCAD, the LC-UV-ESI-MSn product identification result was “FaCAD was expressed in yeast cells and showed that coniferyl alcohol was generated”.
Consider `COc1cc(/C=C/CO)ccc1O` [coniferyl alcohol], for which the LC-UV-ESI-MSn product identification entry on FaPOD27 is “ferulic acid and coniferyl alcohol were almost completely oxidized in the presence of H2O2”.

B1: GST-FaCCR (Fragaria x ananassa) (protein)
chain: MPVDNCSSLSGHGQTVCVTGAGGFFASWLVKLLLERGYNVRGTVRNPEDPKNAHLRELEGAKERLSLRKADLLDFESLKEAINGCDGVFHTASPVTDDPEQMVEPAVNGTKNVIVAAAEAKVKRVVFTSSIGAVYMDPARGPDVVVDESCWSDLEFCKNTKNWYCYGKAVAEQAAWEEAKERGVDLVVVNPVLVLGPLLQPTINASIIHILKYLTGSAKTYANSVQAYVHVKDVALAHILVYETPSASGRYLCAESVLHRGDVVEILAKFFPEYPIPSKLKDDGKPRAIPYKFSNQKLQDLGLEFTSVKQSLYDTVKSLQEKGHLKVPTKQEEDSFKIQ
As for B1, the Michaelis-Menten constant (Km) was found to be 16.11 ± 1.39 µM in series [1], 25.48 ± 0.82 µM in series [2] and 24.75 ± 1.23 µM in series [3]. Also, the specificity constant (kcat/Km) in series [1] turned out to be 145 M⁻¹ s⁻¹; in series [2] it was 1.15 M⁻¹ s⁻¹; in series [3], 1.07 M⁻¹ s⁻¹.

The values are drawn from article PMC4191155, “FaPOD27 functions in the metabolism of polyphenols in strawberry fruit (Fragaria sp.)” (Frontiers in Plant Science, 2014).
